Values quoted from earlier work in PMC10027511, “Disordered proteins mitigate the temperature dependence of site-specific binding free energies” (The Journal of Biological Chemistry, 2023).

How the values were obtained:
[1] = target: Sos site 4 peptide site 4 peptide (Drosophila melanogaster) (UniProt P26675); assay: 19F NMR lineshape analysis, 35 °C
[2] = target: Sos site 4 peptide site 4 peptide (Drosophila melanogaster) (UniProt P26675); assay: 19F NMR lineshape analysis, 25 °C
[3] = target: Sos site 4 peptide site 4 peptide (Drosophila melanogaster) (UniProt P26675); assay: 19F NMR lineshape analysis, 5 °C
[4] = target: Sos site 4 peptide site 4 peptide (Drosophila melanogaster) (UniProt P26675); assay: 19F NMR lineshape analysis, 15 °C
[5] = target: Sos site 4 peptide site 4 peptide (Drosophila melanogaster) (UniProt P26675); assay: 19F NMR lineshape analysis, 45 °C

Drk N-terminal SH3 domain N-terminal SH3 (from UniProt Q08012)
Kd [1]: 110 µM | Kd [2]: 60 µM | Kd [3]: 20 µM | Kd [4]: 40 µM | Kd [5]: 210 µM
